Publication PMC9415858
Several values for one entry are separate records, joined by “and”; a condition that tells them apart may be missing. Identical values can stand only once.

Target: His-Tagged FcRn (UniProt P55899)
Test: SPR; His-tagged FcRn captured on an anti-His IgG1 antibody CM5 chip; antibody samples as analyte at 15, 5 and 1.66 nM in HBS-EP pH 6.0, 30 µL/min, 22 °C; steady-state model (the same data also fitted with a two-state model); mean of at least 5 measurements

Chain of UniProt P55899 (P55899 24-297): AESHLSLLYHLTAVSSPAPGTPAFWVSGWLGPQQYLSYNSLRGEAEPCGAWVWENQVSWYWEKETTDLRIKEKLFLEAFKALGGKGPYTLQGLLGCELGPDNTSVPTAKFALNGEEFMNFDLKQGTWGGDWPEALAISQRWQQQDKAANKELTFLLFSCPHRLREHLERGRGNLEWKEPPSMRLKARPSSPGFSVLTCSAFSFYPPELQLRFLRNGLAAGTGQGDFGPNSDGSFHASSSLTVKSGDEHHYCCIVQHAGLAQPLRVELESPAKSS

Kd: 25 nM and 22.7 nM
Substance: Avastin (unfractionated innovator product) (antibody)
